# Measurements published in the supplement of paper PMC9112550, “Optimization of the antimicrobial peptide Bac7 by deep mutational scanning” (BMC Biology, 2022).
# Tested on: Escherichia coli TOP10
# Assay: shrunken log2 fold change of peptide-encoding DNA abundance (4.5 h post-induction vs induction); higher = less antimicrobial activity (less host growth inhibition)
# Conditions: time post-induction: 4.5 h; library: site-saturation at positions 5, 18, 19, 20
# 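Further: peptides expressed intracellularly from a pBAD plasmid library in pooled LB shake-flask culture, induced with 0.3% L-arabinose, DNA abundance read by NGS, three biological replicates, DESeq2 with apeglm shrinkage.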
row,Sequence,shrunken log2 fold change
1,RRIRARPPRLPRPRPRPENQPRP,0.153
2,RRIRRRPPRLPRPRPRPIFVPRP,0.0119
3,RRIRKRPPRLPRPRPRPLWQPRP,0.442
4,RRIRCRPPRLPRPRPRPSIIPRP,-0.348
5,RRIRRRPPRLPRPRPRPAWHPRP,0.527
6,RRIRLRPPRLPRPRPRPDIEPRP,0.0333
7,RRIRMRPPRLPRPRPRPTHFPRP,0.86
8,RRIRNRPPRLPRPRPRPMKDPRP,0.145
9,RRIRIRPPRLPRPRPRPQCWPRP,0.203
10,RRIRWRPPRLPRPRPRPFNKPRP,-0.441
11,RRIRARPPRLPRPRPRPMCRPRP,0.0586
12,RRIRRRPPRLPRPRPRPKNKPRP,0.294
13,RRIRFRPPRLPRPRPRPMTCPRP,-0.0088
14,RRIRERPPRLPRPRPRPRFPPRP,0.0958
15,RRIRHRPPRLPRPRPRPTEGPRP,-0.00285
16,RRIRCRPPRLPRPRPRPHGIPRP,-0.0487
17,RRIRLRPPRLPRPRPRPAGCPRP,0.263
18,RRIRSRPPRLPRPRPRPWICPRP,-0.15
19,RRIRDRPPRLPRPRPRPAQEPRP,0.185
20,RRIRFRPPRLPRPRPRPNLKPRP,-0.553
21,RRIRQRPPRLPRPRPRPHHCPRP,-0.652
22,RRIRCRPPRLPRPRPRPMQPPRP,0.462
23,RRIRPRPPRLPRPRPRPEILPRP,0.0928
24,RRIRCRPPRLPRPRPRPNLVPRP,-0.192
25,RRIRWRPPRLPRPRPRPIIIPRP,0.117

row,Sequence,shrunken log2 fold change
1,RRIRGRPPRLPRPRPRPCHFPRP,0.0576
2,RRIRVRPPRLPRPRPRPCCVPRP,-0.146
3,RRIRIRPPRLPRPRPRPFFEPRP,-0.267
4,RRIRLRPPRLPRPRPRPYVTPRP,-0.169
5,RRIRNRPPRLPRPRPRPGENPRP,0.185
6,RRIRKRPPRLPRPRPRPILGPRP,0.00783
7,RRIRPRPPRLPRPRPRPSPYPRP,-0.461
8,RRIRMRPPRLPRPRPRPVYGPRP,-0.294
9,RRIRPRPPRLPRPRPRPAPPPRP,0.726
10,RRIRGRPPRLPRPRPRPYFWPRP,0.0833
11,RRIRNRPPRLPRPRPRPMYMPRP,-0.05
12,RRIRRRPPRLPRPRPRPETKPRP,0.511
13,RRIRKRPPRLPRPRPRPTQRPRP,1.13
14,RRIRRRPPRLPRPRPRPLFSPRP,-0.0439
15,RRIRQRPPRLPRPRPRPPATPRP,0.452
16,RRIRYRPPRLPRPRPRPQEMPRP,-0.0143
17,RRIRTRPPRLPRPRPRPRRIPRP,-0.16
18,RRIRVRPPRLPRPRPRPGTSPRP,-0.073
19,RRIRFRPPRLPRPRPRPPRFPRP,0.454
20,RRIRIRPPRLPRPRPRPSPPPRP,-0.214
21,RRIRYRPPRLPRPRPRPEDCPRP,-0.029
22,RRIRHRPPRLPRPRPRPIGWPRP,0.0927
23,RRIRLRPPRLPRPRPRPERRPRP,-0.0189
24,RRIRGRPPRLPRPRPRPKRPPRP,0.969
25,RRIRWRPPRLPRPRPRPEKIPRP,2.76
